Measurements taken from publication PMC5600425.
Where two headings read alike, the source gives them in different places.

Assays:
AgrA DBD (LytTR domain) [1] = biological target: T1, AgrA DBD (LytTR domain) (Staphylococcus aureus, UniProt Q5HEG2 138-238); experiment: X-ray crystallography
T1 sequence: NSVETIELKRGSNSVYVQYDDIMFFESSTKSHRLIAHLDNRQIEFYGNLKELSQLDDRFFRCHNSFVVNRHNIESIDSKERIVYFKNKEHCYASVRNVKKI

AgrA DBD (LytTR domain) [2] = biological target: T1, AgrA DBD (LytTR domain); experiment: X-ray crystallography; remark: listed apart in the source
AgrA [3] = biological target: T2, AgrA (Staphylococcus aureus COL, UniProt Q5HEG2 1-238); experiment: competition
T2 sequence: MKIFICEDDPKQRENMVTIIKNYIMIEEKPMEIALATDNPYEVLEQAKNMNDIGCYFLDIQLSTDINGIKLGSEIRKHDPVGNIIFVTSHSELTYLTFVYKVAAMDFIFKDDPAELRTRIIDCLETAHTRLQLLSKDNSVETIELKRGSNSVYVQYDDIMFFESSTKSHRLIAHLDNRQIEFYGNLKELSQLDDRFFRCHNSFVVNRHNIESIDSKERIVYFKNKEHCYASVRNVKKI

AgrA~P [4] = biological target: T3, AgrA~P (Staphylococcus aureus COL, UniProt Q5HEG2 1-238); experiment: competition
T3 sequence: T2 sequence

AgrA [5] = biological target: T2, AgrA; experiment: SPR
AgrA~P [6] = biological target: T3, AgrA~P; experiment: SPR
AgrA DBD (LytTR domain) [7] = biological target: T1, AgrA DBD (LytTR domain); experiment: X-ray crystallography; remark: listed apart in the source
AgrA DBD (LytTR domain) [8] = biological target: T1, AgrA DBD (LytTR domain); experiment: X-ray crystallography; remark: listed apart in the source

B1: P3_S2 (dsDNA)
DNA 1: ATTTACAGTTAAGAAT
DNA 2: AATTCTTAACTGTAAA
binding result (AgrA DBD (LytTR domain) [1]): binds

B2: P3_S1 (dsDNA)
DNA 1: TCGACTAGTTAAGAAA
DNA 2: ATTTCTTAACTAGTCG
binding result (AgrA DBD (LytTR domain) [2]): binds

B3: P3 promoter (SPR) (dsDNA)
DNA 1: TTCTTAACTAGTCGTTTTTTATTCTTAACTGTAA
DNA 2: TTACAGTTAAGAATAAAAAACGACTAGTTAAGAA
binding result (AgrA [3]): binds | binding result (AgrA~P [4]): binds

B4: P2-P3 intergenic region (negative control) (dsDNA)
DNA 1: TTTTTATGTTAAAATATTAAATACAAATTAC
DNA 2: GTAATTTGTATTTAATATTTTAACATAAAAA
binding result (AgrA [5]): no binding | binding result (AgrA~P [6]): no binding

B5: P2_S2 (dsDNA)
DNA 1: TTTAACAGTTAAGTAT
DNA 2: AATACTTAACTGTTAA
binding result (AgrA DBD (LytTR domain) [7]): binds

B6: P2_S1 (dsDNA)
DNA 1: TCCTACAGTTAGGCAA
DNA 2: ATTGCCTAACTGTAGG
binding result (AgrA DBD (LytTR domain) [8]): binds

B7: P1 promoter (SPR) (dsDNA)
DNA 1: TCGAAATACCCGATGAAGTAAGTAGCATTAACTT
DNA 2: AAGTTAATGCTACTTACTTCATCGGGTATTTCGA
binding result (AgrA [3]): binds
